Reference: the supplement of paper PMC10567573

B1: HDAC6 (parent)
chain: DLMETTQYMNEGELRVLADTYDSV
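Further: lentivirally expressed fusions sorted by FACS into six bins by GFP to DsRed ratio, PSI derived from sequencing read proportions per bin multiplied by bin number.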

Variants of: B1
Experiment: protein stability index of a GFP-peptide fusion (GPS, HEK-293T) (PSI 1-6); higher = more stable
Conditions: c terminus: a fixed tail appended
Variant DLMETTQYMNWGELRVLADTYDSV [E11W] has a protein stability index of 1.89.
In the case of DLMETTQYMNYGELRVLADTYDSV [E11Y], the protein stability index is reported as 2.43.
In the case of DLMETTQYMNEGELLVLADTYDSV [R15L], the protein stability index is reported as 1.5.
DLMETTQYMNEGELSVLADTYDSV [R15S] showed a protein stability index of 2.09.
DLMETTQYMNEGELFVLADTYDSV [R15F] gave a protein stability index of 2.64.
Work on DLMETTQYMNEGELEVLADTYDSV [R15E] yielded a protein stability index of 2.01.
With DLMETTQYMNEGELVVLADTYDSV [R15V] the protein stability index was 2.37.
Variant DLMETTQYMNEGELMVLADTYDSV [R15M] has a protein stability index of 1.89.
In the case of DLMETTQYMNEGELCVLADTYDSV [R15C], the protein stability index is reported as 1.5.
DLMETTQYMNEGELKVLADTYDSV [R15K] gave a protein stability index of 2.27.
Work on DLMETTQYMNEGELHVLADTYDSV [R15H] yielded a protein stability index of 2.03.
DLMETTQYMNEGELPVLADTYDSV [R15P] gave a protein stability index of 4.61.
For DLMETTQYMNEGELAVLADTYDSV [R15A], the protein stability index was 1.77.
In the case of DLMETTQYMNEGELTVLADTYDSV [R15T], the protein stability index is reported as 2.58.
Variant DLMETTQYMNEGELGVLADTYDSV [R15G] has a protein stability index of 3.24.
With DLMETTQYMNEGELIVLADTYDSV [R15I] the protein stability index was 2.2.
DLMETTQYMNEGELQVLADTYDSV [R15Q] showed a protein stability index of 1.76.
For DLMETTQYMNEGELDVLADTYDSV [R15D], the protein stability index was 3.8.
For DLMETTQYMNEGELYVLADTYDSV [R15Y], the protein stability index was 2.39.
DLMETTQYMNEGELNVLADTYDSV [R15N] gave a protein stability index of 2.67.
DLMETTQYMNEHELRVLADTYDSV [G12H] gave a protein stability index of 3.46.
DLMETTQYMNEKELRVLADTYDSV [G12K] gave a protein stability index of 3.87.
DLMETTQYMNERELRVLADTYDSV [G12R] showed a protein stability index of 3.71.
With DLMETTQYMNEDELRVLADTYDSV [G12D] the protein stability index was 4.79.
Work on DLMETTQYMNEEELRVLADTYDSV [G12E] yielded a protein stability index of 4.82.
DLMETTQYMNELELRVLADTYDSV [G12L] showed a protein stability index of 3.56.
For DLMETTQYMNEWELRVLADTYDSV [G12W], the protein stability index was 2.03.
DLMETTQYMNEMELRVLADTYDSV [G12M] gave a protein stability index of 3.18.
DLMETTQYMNEIELRVLADTYDSV [G12I] showed a protein stability index of 2.9.
DLMETTQYMNECELRVLADTYDSV [G12C] showed a protein stability index of 3.07.
With DLMETTQYMNEAELRVLADTYDSV [G12A] the protein stability index was 2.33.
Variant DLMETTQYMNEQELRVLADTYDSV [G12Q] has a protein stability index of 4.16.
In the case of DLMETTQYMNEYELRVLADTYDSV [G12Y], the protein stability index is reported as 2.62.
With DLMETTQYMNESELRVLADTYDSV [G12S] the protein stability index was 3.58.
Work on DLMETTQYMNENELRVLADTYDSV [G12N] yielded a protein stability index of 4.08.
In the case of DLMETTQYMNETELRVLADTYDSV [G12T], the protein stability index is reported as 3.49.
DLMETTQYMNEPELRVLADTYDSV [G12P] showed a protein stability index of 4.74.
Variant DLMETTQYMNEVELRVLADTYDSV [G12V] has a protein stability index of 2.85.
In the case of DLMETTQYMNEFELRVLADTYDSV [G12F], the protein stability index is reported as 2.85.
For DLMETTQYMNEGELRPLADTYDSV [V16P], the protein stability index was 4.81.
Variant DLMETTQYMNEGELRELADTYDSV [V16E] has a protein stability index of 4.75.
DLMETTQYMNEGELRRLADTYDSV [V16R] showed a protein stability index of 4.01.
DLMETTQYMNEGELRSLADTYDSV [V16S] showed a protein stability index of 4.42.
Work on DLMETTQYMNEGELRWLADTYDSV [V16W] yielded a protein stability index of 3.54.
Work on DLMETTQYMNEGELRALADTYDSV [V16A] yielded a protein stability index of 3.72.
Variant DLMETTQYMNEGELRHLADTYDSV [V16H] has a protein stability index of 4.62.
With DLMETTQYMNEGELRILADTYDSV [V16I] the protein stability index was 2.1.
With DLMETTQYMNEGELRMLADTYDSV [V16M] the protein stability index was 3.99.
In the case of DLMETTQYMNEGELRKLADTYDSV [V16K], the protein stability index is reported as 3.91.
DLMETTQYMNEGELRFLADTYDSV [V16F] gave a protein stability index of 3.61.
For DLMETTQYMNEGELRQLADTYDSV [V16Q], the protein stability index was 4.23.
In the case of DLMETTQYMNEGELRNLADTYDSV [V16N], the protein stability index is reported as 4.06.
Variant DLMETTQYMNEGELRGLADTYDSV [V16G] has a protein stability index of 4.03.
In the case of DLMETTQYMNEGELRCLADTYDSV [V16C], the protein stability index is reported as 2.72.
Variant DLMETTQYMNEGELRLLADTYDSV [V16L] has a protein stability index of 3.27.
With DLMETTQYMNEGELRTLADTYDSV [V16T] the protein stability index was 4.2.
In the case of DLMETTQYMNEGELRDLADTYDSV [V16D], the protein stability index is reported as 4.54.
DLMETTQYMNEGNLRVLADTYDSV [E13N] gave a protein stability index of 3.96.
DLMETTQYMNEGLLRVLADTYDSV [E13L] gave a protein stability index of 2.63.
In the case of DLMETTQYMNEGYLRVLADTYDSV [E13Y], the protein stability index is reported as 2.83.
Variant DLMETTQYMNEGHLRVLADTYDSV [E13H] has a protein stability index of 3.2.
With DLMETTQYMNEGMLRVLADTYDSV [E13M] the protein stability index was 2.65.
Work on DLMETTQYMNEGPLRVLADTYDSV [E13P] yielded a protein stability index of 3.74.
With DLMETTQYMNEGWLRVLADTYDSV [E13W] the protein stability index was 2.32.
DLMETTQYMNEGDLRVLADTYDSV [E13D] showed a protein stability index of 3.9.
Variant DLMETTQYMNEGTLRVLADTYDSV [E13T] has a protein stability index of 3.84.
DLMETTQYMNEGFLRVLADTYDSV [E13F] showed a protein stability index of 2.66.
With DLMETTQYMNEGILRVLADTYDSV [E13I] the protein stability index was 2.47.
In the case of DLMETTQYMNEGVLRVLADTYDSV [E13V], the protein stability index is reported as 3.53.
For DLMETTQYMNEGRLRVLADTYDSV [E13R], the protein stability index was 3.63.
With DLMETTQYMNEGQLRVLADTYDSV [E13Q] the protein stability index was 4.13.
With DLMETTQYMNEGGLRVLADTYDSV [E13G] the protein stability index was 4.06.
In the case of DLMETTQYMNEGSLRVLADTYDSV [E13S], the protein stability index is reported as 3.56.
In the case of DLMETTQYMNEGKLRVLADTYDSV [E13K], the protein stability index is reported as 3.69.
Work on DLMETTQYMNEGALRVLADTYDSV [E13A] yielded a protein stability index of 3.38.
With DLMETTQYMNEGCLRVLADTYDSV [E13C] the protein stability index was 3.37.
DLMETTQYMNEGEQRVLADTYDSV [L14Q] gave a protein stability index of 2.28.
Variant DLMETTQYMNEGEIRVLADTYDSV [L14I] has a protein stability index of 2.26.
With DLMETTQYMNEGETRVLADTYDSV [L14T] the protein stability index was 3.56.
With DLMETTQYMNEGEGRVLADTYDSV [L14G] the protein stability index was 2.92.
DLMETTQYMNEGEHRVLADTYDSV [L14H] gave a protein stability index of 2.29.
DLMETTQYMNEGEPRVLADTYDSV [L14P] showed a protein stability index of 4.29.
Work on DLMETTQYMNEGEKRVLADTYDSV [L14K] yielded a protein stability index of 2.96.
In the case of DLMETTQYMNEGEDRVLADTYDSV [L14D], the protein stability index is reported as 2.32.
DLMETTQYMNEGEARVLADTYDSV [L14A] gave a protein stability index of 2.11.
With DLMETTQYMNEGEWRVLADTYDSV [L14W] the protein stability index was 2.48.
DLMETTQYMNEGEVRVLADTYDSV [L14V] gave a protein stability index of 2.83.
DLMETTQYMNEGEFRVLADTYDSV [L14F] showed a protein stability index of 1.74.
For DLMETTQYMNEGECRVLADTYDSV [L14C], the protein stability index was 1.97.
Work on DLMETTQYMNEGESRVLADTYDSV [L14S] yielded a protein stability index of 2.21.
Variant DLMETTQYMNEGENRVLADTYDSV [L14N] has a protein stability index of 3.03.
For DLMETTQYMNEGEYRVLADTYDSV [L14Y], the protein stability index was 1.87.
In the case of DLMETTQYMNEGEMRVLADTYDSV [L14M], the protein stability index is reported as 1.62.
Variant DLMETTQYMNEGEERVLADTYDSV [L14E] has a protein stability index of 2.07.
